# Test results published in patent US20120207760A1.
# B1: TCN-539 (5056_A08) (antibody, V domains shown)
# VH: QVQLVESGGGVVQPGRSLRLSCAASEITFITYAMHWVRQAPGKGLEWVALISDDGSNKFYADSVKGRFTISRDNSKNTLYLQMNSLRAEDTAAYYCAREGVYFDSGTYRGYFDYWGQETLVTVSS
# VL: EIVLTQSPATLSLSPGERATLSCRASQSVSSYLAWYQQKPGQAPRLLIYDASNRATGIPARFSGSGSGTDFTLTISSLEPEDFAVYYCQQRSHWPPITFGQGTRLEIK
# B2: TCN-551 (5243_D01) (antibody, V domains shown)
# VH: EVQLVQSGSEVKKPGESLKISCKGSGYSFSNYWIGWVRHMPGKGLEWMGIIYPGDSDTRYSPSFQGQVTMSADKSSSTVYLQWSSLKASDTAIYYCARRGGHSFGYGSGGDTHSEFDSWGQGTLVTVSS
# VL: QSVLTQSPSVSAAPGQKVTISCSGSDSNIGDYFVCWYQHLPGKPPQLLIYENNKRPSGIPDRFSGSKSGTSATLGITGIQTGDEADYYCATWDGSLSAWVFGGGTKLTVL
# B3: TCN-542 (5079_A16) (antibody, V domains shown)
# VH: QVQLQESGPGLVKPSQTLSLTCTVSGGSISSGNYYWNWVRQHPGKGLEWIGYIYYRGSTFYNPSLKSRVTISIDTSKNQFSLRLSSVTAADTAVYYCAKDTRSSLDNYQYGMDVWGQGTTVTVSS
# VL: QTVVTQEPSLTVSPGGTVTLTCASSTGAVTSSYFPNWFQQKPGQAPRPLIYSTTIRHSWTPARFSGSLLGGKAALTLSGVQPEDEADYYCLLYSGGDPVAFGGGTKLTVL
# B4: TCN-533 (5256_A17) (antibody, V domains shown)
# VH: QVQLVQSGADVKKPGSSVTVSCKASGGSFSNYGINWVRQAPGQGLEWMGGIIPLINAPNYAPKFQGRVTITADMFSNIVSLQLTSLRTDDTAVYYCARRKMTTAIDYWGQGTLVTVSS
# VL: QPVLSQPPSASASLGASVTLTCTLSSGFDNYQVAWYQQRPGKGPRFVMRVGNGGNVASKGDGIPDRFSVSGSGLNRYLTIKNIQEDDESDYYCGADHGSGNNFVSPYVFGGGTKLTVL
# Experiments:
# Conditions in all cases: remark: other sources report otherwise
# [1] = biological target: recombinant soluble homotrimeric HA of A/Common magpie/Hong Kong/5052/07 - H5N1 (Influenza A virus A/common magpie/Hong Kong/5052/2007 (H5N1)); assay: micro-array; captured IgG, V5-tagged trimeric HA
# [2] = biological target: Hemagglutinin of influenza A/Japan/305/57 (H2N2), on inactivated whole virions (Influenza A virus A/Japan/305/1957 (H2N2)), P03451; assay: ELISA, B cell culture supernatant on inactivated whole virions
# [3] = biological target: recombinant soluble homotrimeric HA of A/common magpie/Hong Kong/5052/07 (H5N1) (Influenza A virus A/common magpie/Hong Kong/5052/07 (H5N1)); assay: microarray, BCC supernatant IgG, trimeric HA
Binder,Trimeric HA Binding: RLU [1] [RLU],other results
B1,1440,
B2,,OD450 [2]: 0.19 OD450
B3,1670,
B4,,Trimeric HA Binding: RLU [3]: 44500 RLU
